From patent US20130302313A1

Target: coxsackievirus-adenovirus receptor (CAR) (UniProt P78310)
Assay: cell-based or functional assay

UniProt P78310, sequence (P78310 20-365 limits assumed): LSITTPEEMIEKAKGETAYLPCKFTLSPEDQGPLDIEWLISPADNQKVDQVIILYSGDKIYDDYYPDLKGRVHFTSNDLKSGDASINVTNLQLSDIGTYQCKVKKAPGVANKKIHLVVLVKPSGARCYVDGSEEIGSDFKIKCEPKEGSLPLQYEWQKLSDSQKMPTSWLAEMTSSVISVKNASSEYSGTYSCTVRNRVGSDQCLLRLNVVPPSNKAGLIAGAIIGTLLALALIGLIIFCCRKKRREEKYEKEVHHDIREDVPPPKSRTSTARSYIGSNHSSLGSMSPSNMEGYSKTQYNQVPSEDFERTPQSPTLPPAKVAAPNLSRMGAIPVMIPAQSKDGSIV

Q: What does the source list for “free soluble Ad5 fiber molecules (from UniProt P11818 1-581) (ligand)”?
A: GFP expression (transduction) of A549 cells by Ad5(GFP) at 500 evg/cell in the presence of soluble Ad5 fiber, relative to absence of soluble fiber (set to 100%): 20%; Transduction efficacy of A549 cells by Ad5PTD(GFP) at 500 evg/cell in the presence of soluble Ad5 fiber, relative to absence of soluble fiber (set to 100%): 80%
